Measurements published in patent US20190367617A1 (AMPSOURCE BIOPHARMA SHANGHAI, published 2019).
Numbering of substitutions follows the chain as printed. One block for each binder: values may come before it.

What was measured:
[1] = target: T1, human ICOS/Fc (Sino Biological Inc.) (human, UniProt Q9Y6W8 21-141, limits assumed); assay: indirect ELISA, human ICOS/Fc coated at 0.1 µg/mL, HRP goat anti-mouse IgG
T1 construct: Bought protein; not shown: Fc
T1 sequence (looked up): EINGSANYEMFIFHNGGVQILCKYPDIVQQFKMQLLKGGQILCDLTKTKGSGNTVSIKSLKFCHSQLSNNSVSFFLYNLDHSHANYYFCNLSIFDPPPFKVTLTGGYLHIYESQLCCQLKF
Protocol: (§1) Human PD-1/His, human ICOS/Fc, human CTLA4/His, human CD28/Fc, cynomolgus monkey PD-1/Fc, and mouse PD-1/His (all from Sino Biological Inc., Beijing, China) were diluted with PBS buffer to 0.1 μg/mL, and added to the 96-well plate at a volume of 100 μL/well and placed at 16° C. for 16 to 20 h. The PBS buffer was aspirated from the 96-well plate, and the plate was washed once with PBST (PBS containing 0.05% Tween 20, pH 7.4). 200 μL of PBST/1% no-fat milk was added to each well and incubated at room temperature for 1 h for blocking. The blocking solution was removed and the plate was washed 3 times with PBST. 100 μL of the anti-PD-1 antibody to be tested was added to each well, and incubated at room temperature for 1.5 h. The reaction solution was removed and the plate was washed 3 times with PBST. 50 μL of the HRP-labeled goat anti-mouse IgG secondary antibody (The Jackson Laboratory) diluted (dilution ratio 1:4000) was added to each well. Incubated at room temperature for 1 h. The plate was washed 3 times with PBST. 100 μL of the TMB was added to each well and incubated at room temperature for 5-10 min 50 μL of 0.2 M sulfuric acid was added to each well to terminate the reaction. Absorbance values were read at dual wavelengths of 450/620 nm in a microplate reader.

[2] = target: T2, mouse PD-1/His (Sino Biological Inc.) (mouse, UniProt Q02242 25-167); assay: indirect ELISA, mouse PD-1/His coated at 0.1 µg/mL, HRP goat anti-mouse IgG
T2 construct: Bought protein; not shown: His tag
T2 sequence (looked up): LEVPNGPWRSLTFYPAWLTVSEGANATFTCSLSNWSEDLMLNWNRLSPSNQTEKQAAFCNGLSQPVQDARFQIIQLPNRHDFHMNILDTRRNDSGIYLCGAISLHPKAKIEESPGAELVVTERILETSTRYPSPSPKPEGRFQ
Protocol: as §1

[3] = target: T3, human CTLA4/His (Sino Biological Inc.) (human, UniProt P16410 36-162, limits assumed); assay: indirect ELISA, human CTLA4/His coated at 0.1 µg/mL, HRP goat anti-mouse IgG
T3 construct: Bought protein; not shown: His tag
Protocol: as §1

[4] = target: T4, cynomolgus monkey PD-1/Fc (Sino Biological Inc.) (cynomolgus monkey, UniProt B0LAJ3 25-170); assay: indirect ELISA, cynomolgus monkey PD-1/Fc coated at 0.1 µg/mL, HRP goat anti-mouse IgG
T4 construct: Bought protein
Protocol: as §1

[5] = target: T5, human PD-1/His (Sino Biological Inc.) (human, UniProt Q15116 25-170); assay: affinity and kinetic constants; method not restated, taken as BLI of Example 3.4
T5 construct: extracellular domain; Bought protein; also called extracellular domain fragment of PD-1 protein containing His tag; not shown: His tag

[6] = target: T6, mouse PD-1 (Sino Biological Inc., Beijing, China) (mouse, UniProt Q02242 25-167, limits assumed); assay: indirect ELISA, mouse PD-1 coated, HRP goat anti-human IgG
T6 sequence (looked up): T2 sequence (looked up)
Text: (§2) The HRP-labeled goat anti-human IgG antibody (The Jackson Laboratory) was used as the secondary antibody, and the detailed assay procedure was as described in Example 2.

[7] = target: T7, Human PD-1 (Sino Biological Inc., Beijing, China) (human, UniProt Q15116 25-167); assay: indirect ELISA, human PD-1 coated at 0.1 µg/mL, HRP goat anti-human IgG
T7 construct: also called hPD-1
Text: as §2

[8] = target: T7, Human PD-1 (Sino Biological Inc., …); assay: competitive ELISA, human PD-1 coated at 0.1 µg/mL, competitor Opdivo-HRP
Protocol: (§3) Human PD-1 (Sino Biological Inc., Beijing, China) was diluted to 0.1 μg/mL with PBS buffer and added to the 96-well plate at a volume of 100 μL/well and allowed to stand overnight at room temperature. The coating solution was removed, 200 μL of PBST/1% no-fat milk was added to each well and incubated at room temperature for 1 h for blocking. The blocking solution was removed and the plate was washed 3 times with PBST.

[9] = target: T7, Human PD-1 (Sino Biological Inc., …); assay: competitive ELISA, human PD-1 coated at 0.1 µg/mL, competitor Keytruda-HRP
Protocol: as §3

[10] = target: T8, PD-1 expressed on the surface of activated human T cells (human, UniProt Q15116 25-288); assay: flow cytometry on activated human T cells, FITC goat anti-human IgG
T8 construct: whole, on cells
Protocol: Fresh mononuclear cells were obtained from human peripheral blood by density gradient centrifugation (Lymphoprep™, human lymphocyte separation solution, […]), and high purity T lymphocytes were obtained using T cell isolation reagents ([…]). The T lymphocytes were stimulated with 5 μg/mL of the anti-CD3 antibody for 48 h, and cultured for 7 days after addition of 250 IU/mL of human IL-2. A large number of activated T lymphocytes were then obtained. […] The FITC signals were detected by flow cytometry.

[11] = target: T5, human PD-1/His (Sino Biological Inc.); assay: competitive ELISA: PD-1/His coated at 2 µg/mL, blocks biotin-labeled PD-L1/Fc
Protocol: The extracellular domain fragment of PD-1 protein containing His tag was coated onto the 96-well ELISA plate.
PD-1/His was diluted to 2 μg/mL with PBS buffer, pH 7.2, and added to the 96 well ELISA plate at 100 μL per well and incubated with shaking at room temperature for 1 h. The PBS buffer was aspirated from the 96-well ELISA plate. 200 μL of PBST(PBS containing 0.05% Tween 20, pH 7.4)/1% no-fat milk was added to each well and incubated at room temperature for 1 h for blocking. The plate was washed 3 times with PBST. 50 μL of the anti-PD-1 antibody to be tested was added to each well, which was diluted with the blocking solution to an appropriate concentration. […] Incubating at room temperature for 1 h. The plate was washed 3 times with PBST. 100 μL of SA-Avidin-HRP (HRP-labeled streptavidin) diluted at 1:250 ratio with the blocking solution was added to each well, and incubated at room temperature for 1 h. Washing the plate 3 times with PBST. 100 μL of the TMB substrate solution was added to each well and incubated at room temperature for 5-10 min. Adding 50 μL of 0.2 M sulfuric acid to each well to terminate the reaction. The absorbance values were read at 450 nm in a microplate reader.

[12] = target: T9, PD-1 overexpressed on the surface of CHO cells (Homo sapiens (Human), UniProt Q15116 25-288); assay: flow cytometry on PD-1-overexpressing CHO cells, FITC goat anti-human IgG
T9 construct: also called PD-1-overexpressing CHO cells
Text: FACS (fluorescence activated cell sorting) is a test used for detection of the binding between proteins and cells. The test was used to detect the binding activity of the humanized anti-PD-1 antibodies of the present invention to native PD-1 expressed on the cell surface. The cells used in the test were PD-1-overexpressing CHO cells.

T5 sequence (Q15116 25-170): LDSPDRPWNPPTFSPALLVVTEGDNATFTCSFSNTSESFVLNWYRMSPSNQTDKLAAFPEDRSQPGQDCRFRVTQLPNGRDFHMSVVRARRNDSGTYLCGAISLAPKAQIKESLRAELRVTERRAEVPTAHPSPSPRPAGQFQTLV
T7 sequence (Q15116 25-167 limits assumed): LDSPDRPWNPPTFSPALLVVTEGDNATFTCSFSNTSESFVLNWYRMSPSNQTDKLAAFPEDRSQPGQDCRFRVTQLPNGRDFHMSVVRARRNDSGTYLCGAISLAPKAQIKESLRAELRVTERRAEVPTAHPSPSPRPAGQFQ
T9 sequence (Q15116 25-288 limits assumed): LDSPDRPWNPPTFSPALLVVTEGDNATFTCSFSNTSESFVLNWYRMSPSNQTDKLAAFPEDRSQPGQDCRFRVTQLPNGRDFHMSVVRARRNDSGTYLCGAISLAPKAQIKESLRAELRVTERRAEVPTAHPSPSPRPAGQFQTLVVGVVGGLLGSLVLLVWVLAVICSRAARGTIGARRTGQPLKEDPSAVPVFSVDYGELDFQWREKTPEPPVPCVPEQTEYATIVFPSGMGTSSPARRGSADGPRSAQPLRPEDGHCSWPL
T3 sequence (P16410 36-162 limits assumed): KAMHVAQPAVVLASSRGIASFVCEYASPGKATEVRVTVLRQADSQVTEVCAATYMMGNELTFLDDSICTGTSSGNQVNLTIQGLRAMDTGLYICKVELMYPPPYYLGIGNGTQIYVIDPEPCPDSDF
T8 sequence (Q15116 25-288): as the sequence (Q15116 25-288 limits assumed) above
T4 sequence (B0LAJ3 entry or part of it limits assumed): as the sequence (Q15116 25-170) above, with D2E, P10A, V19L, T35A, Q75R, T144A counted along it

binding result [1]: no binding (tested: 10 µg/mL)
binding result [2]: no binding (tested: 10 µg/mL)
binding result [3]: no binding (tested: 10 µg/mL)
binding result [4]: no binding (tested: 10 µg/mL)
B1: murine monoclonal antibody AB12N1 (antibody, mouse IgG1, V domains shown)
VH: QVQLVESGGGVVQPGRSLRLDCKASGITFSNSGMHWVRQAPGKGLEWVAVIWYDGSKRYYADSVKGRFTISRDNSKNTLFLQMNSLRAEDTAVYYCATNDDYWGQGTLVTV
VL: EIVLTQSPATLSLSPGERATLSCRASQSVSSYLAWYQQKPGQAPRLLIYDASNRATGIPARFSGSGSGTDFTLTISSLEPEDFAVYYCQQSSNWPRTFGQGTKVEIK
notes: subclass identified as mouse IgG1 (Kappa), purified from hybridoma supernatant; also called antibody of hybridoma clone #22

Kd [5]: 365 pM
koff [5]: 2.28e-05 s⁻¹
kon [5]: 62400 M⁻¹ s⁻¹
B2: humanized antibody AB12N3 (antibody, V domains shown)
VH: QVQLVESGGGVVQPGRSLRLSCAASGITFSNSGMHWVRQAPGKGLEWVAVWYDGSKRYYADSVKGRFTISRDNSKNTLYLQMNSLRAEDTAVYYCATNDDYWGQGTLVTV
VL: B1 VL

Kd [5]: 378 pM
koff [5]: 2.41e-05 s⁻¹
kon [5]: 63700 M⁻¹ s⁻¹
B3: humanized antibody AB12N4 (antibody, V domains shown)
VH: B1 VH with D21S, K23A, F80Y
VL: B1 VL

Kd [5]: 414 pM
koff [5]: 2.56e-05 s⁻¹
kon [5]: 61900 M⁻¹ s⁻¹
B4: humanized antibody AB12N5 (antibody, V domains shown)
VH: B2 VH with Y79F
VL: B1 VL

binding result [6]: no binding (tested: 10 µg/ml)
EC50 (read off the curve) [7]: ~0.003 µg/mL
IC50 (read off the curve) [8]: ~0.08 µg/mL
Kd [5]: < 1 pM
koff [5]: < 1e-07 s⁻¹
kon [5]: 198000 M⁻¹ s⁻¹
IC50 (read off the curve) [9]: ~0.07 µg/mL
B5: mouse-human chimeric antibody AB12M2 (antibody, V domains shown)
VH: EVKLVESGGGLVKPGGSLKLSCAASGFTFSSYGMSWVRQTPEKRLEWVATISGGGRDTYYPDSVKGRFTISRDNAKNNLYLQMSSLRSEDTALYYCARQKDTSWFVHWGQGTLVTVSA
VL: not shown

binding result [6]: no binding (tested: 10 µg/ml)
EC50 (read off the curve) [10]: ~800 pM
IC50 [11]: 114 pM
EC50 (read off the curve) [7]: ~0.003 µg/mL
IC50 (read off the curve) [8]: ~0.1 µg/mL
EC50 (read off the curve) [12]: ~1000 pM
Kd [5]: < 1 pM
koff [5]: < 1e-07 s⁻¹
kon [5]: 226000 M⁻¹ s⁻¹
IC50 (read off the curve) [9]: ~0.09 µg/mL
B6: humanized antibody AB12M3 (antibody, V domains shown)
VH: B5 VH with K3Q, K13Q, K19R, T40A, E42G, R44G, S84N, S88A, A118S
VL: EIVLTQSPATLSLSPGERATLSCRASESVDDYGISFMNWFQQKPGQAPKLLIYVASNQGSGVPARFSGSGSGTDFSLTISSLEPDDTAMYFCQQSKEVPWTFGGGTKVEIK
notes: the description speaks of human IgG4 or IgG1 and human kappa only as embodiments

binding result [6]: no binding (tested: 10 µg/ml)
IC50 [11]: 96 pM
EC50 (read off the curve) [7]: ~0.003 µg/mL
IC50 (read off the curve) [8]: ~0.1 µg/mL
EC50 (read off the curve) [12]: ~1000 pM
Kd [5]: < 1 pM
koff [5]: < 1e-07 s⁻¹
kon [5]: 213000 M⁻¹ s⁻¹
IC50 (read off the curve) [9]: ~0.09 µg/mL
B7: humanized antibody AB12M4 (antibody, V domains shown)
VH: B5 VH with K19R
VL: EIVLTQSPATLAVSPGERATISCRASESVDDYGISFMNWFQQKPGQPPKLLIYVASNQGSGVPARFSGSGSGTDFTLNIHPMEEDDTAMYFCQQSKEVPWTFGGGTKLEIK
